Data taken from patent US20080020978A1 (Amgen, published 2008).
Bridge positions count the residues as written; N and C are the ends. Square brackets hold non-standard residues; d marks the D form. hArg = N=C(N)NCCCC[C@H](N)C(=O)O; hCit = NC(=O)NCCCC[C@H](N)C(=O)O

B1: SEQ ID NO 889 (peptide)
peptide: Ac-WVTHRLRGELSRKGGVVRKNFVPTDVGPFAF-NH2
modifications: lactam 9-13
SMILES: CC(=O)N[C@@H](Cc1c[nH]c2ccccc12)C(=O)N[C@H](C(=O)N[C@H](C(=O)N[C@@H](Cc1c[nH]cn1)C(=O)N[C@@H](CCCNC(=N)N)C(=O)N[C@@H](CC(C)C)C(=O)N[C@@H](CCCNC(=N)N)C(=O)NCC(=O)N[C@H]1CCC(=O)NCCCC[C@@H](C(=O)NCC(=O)NCC(=O)N[C@H](C(=O)N[C@H](C(=O)N[C@@H](CCCNC(=N)N)C(=O)N[C@@H](CCCCN)C(=O)N[C@@H](CC(N)=O)C(=O)N[C@@H](Cc2ccccc2)C(=O)N[C@H](C(=O)N2CCC[C@H]2C(=O)N[C@H](C(=O)N[C@@H](CC(=O)O)C(=O)N[C@H](C(=O)NCC(=O)N2CCC[C@H]2C(=O)N[C@@H](Cc2ccccc2)C(=O)N[C@@H](C)C(=O)N[C@@H](Cc2ccccc2)C(N)=O)C(C)C)[C@@H](C)O)C(C)C)C(C)C)C(C)C)NC(=O)[C@H](CCCNC(=N)N)NC(=O)[C@H](CO)NC(=O)[C@H](CC(C)C)NC1=O)[C@@H](C)O)C(C)C
B2: SEQ ID NO 890 (peptide)
peptide: Ac-WVEHRLEGLLKRSGGVVRKNFVPTDVGPFAF-NH2
modifications: lactam 7-11
SMILES: CC(=O)N[C@@H](Cc1c[nH]c2ccccc12)C(=O)N[C@H](C(=O)N[C@@H](CCC(=O)O)C(=O)N[C@@H](Cc1c[nH]cn1)C(=O)N[C@@H](CCCNC(=N)N)C(=O)N[C@@H](CC(C)C)C(=O)N[C@H]1CCC(=O)NCCCC[C@@H](C(=O)N[C@@H](CCCNC(=N)N)C(=O)N[C@@H](CO)C(=O)NCC(=O)NCC(=O)N[C@H](C(=O)N[C@H](C(=O)N[C@@H](CCCNC(=N)N)C(=O)N[C@@H](CCCCN)C(=O)N[C@@H](CC(N)=O)C(=O)N[C@@H](Cc2ccccc2)C(=O)N[C@H](C(=O)N2CCC[C@H]2C(=O)N[C@H](C(=O)N[C@@H](CC(=O)O)C(=O)N[C@H](C(=O)NCC(=O)N2CCC[C@H]2C(=O)N[C@@H](Cc2ccccc2)C(=O)N[C@@H](C)C(=O)N[C@@H](Cc2ccccc2)C(N)=O)C(C)C)[C@@H](C)O)C(C)C)C(C)C)C(C)C)NC(=O)[C@H](CC(C)C)NC(=O)[C@H](CC(C)C)NC(=O)CNC1=O)C(C)C
B3: PEG-peptide of SEQ ID NO 886 (peptide)
peptide: WVTHXLAGLLSXSGGVVXKNFVPTDVGPFAF
modifications: Ac-WVTH[hCit]LAGLLS[hCit]SGGVV[hArg]KNFVPTDVGPFAF-NH2; PEG-conjugated (Table 2C: in most cases at Lys^25)
B4: PEG-peptide of SEQ ID NO 887 (peptide)
peptide: B3 peptide
modifications: Ac-WVTH[hArg]LAGLLS[hCit]SGGVV[hArg]KNFVPTDVGPFAF-NH2; PEG-conjugated (Table 2C: in most cases at Lys^25)

Target: CGRP1 receptor (CRLR/RAMP1 complex) of human neuroblastoma SK-N-MC cells (human, UniProt Q16602 23-461; O60894 27-148)
Sequence (Q16602 23-461, chain 1 of 2): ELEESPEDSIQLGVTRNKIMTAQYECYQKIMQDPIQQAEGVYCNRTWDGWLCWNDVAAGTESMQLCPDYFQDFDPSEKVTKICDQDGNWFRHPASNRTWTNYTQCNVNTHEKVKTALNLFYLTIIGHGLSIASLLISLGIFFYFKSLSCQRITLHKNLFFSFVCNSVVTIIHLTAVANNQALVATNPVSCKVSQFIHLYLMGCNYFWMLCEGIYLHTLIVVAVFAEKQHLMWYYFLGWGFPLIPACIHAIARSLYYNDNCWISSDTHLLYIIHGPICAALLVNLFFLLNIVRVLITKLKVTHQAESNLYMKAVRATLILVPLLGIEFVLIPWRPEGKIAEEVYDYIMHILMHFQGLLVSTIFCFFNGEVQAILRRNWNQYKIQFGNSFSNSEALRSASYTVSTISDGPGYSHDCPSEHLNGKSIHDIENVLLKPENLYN
Sequence (O60894 27-148, chain 2 of 2): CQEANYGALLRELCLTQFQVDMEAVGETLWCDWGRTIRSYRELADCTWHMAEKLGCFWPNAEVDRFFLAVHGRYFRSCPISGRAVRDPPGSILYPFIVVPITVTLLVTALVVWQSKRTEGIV
Experiment: cell-based or functional assay

PEG-peptide IC50 | Peptide IC50 | Binder
3.71 nM |  | Ac-WVEHRLKGLLSRSGGVVRKNFVPTDVGPFAF-NH2 (lactam 3-7; also: PEG-conjugated, in most cases at Lys25) [PEG-peptide of SEQ ID NO 891]
 | 0.94 nM | B1
 | 1.7 nM | B2
2.86 nM |  | Ac-WVEHRLEGLLKRSGGVVRKNFVPTDVGPFAF-NH2 (lactam 7-11; also: PEG-conjugated, in most cases at Lys25) [PEG-peptide of SEQ ID NO 890]
22.7 nM |  | B3
6.3 nM |  | B4
 | 3.14 nM | WVTHXLAGLLSXSGGVVXKNFVPTDVGPFAF (Ac-WVTH[hArg]LAGLLS[hCit]SGGVV[hArg]KNFVPTDVGPFAF-NH2) [SEQ ID NO 887]
 | 1.11 nM | Ac-WVEHRLKGELSRKGGVVRKNFVPTDVGPFAF-NH2 (lactam 9-13, 3-7) [SEQ ID NO 892]
 | 1.47 nM | Ac-WVEHRLKGLLSRSGGVVRKNFVPTDVGPFAF-NH2 (lactam 3-7) [SEQ ID NO 891]
2.11 nM |  | Ac-WVTH[hCit]LAGLLS[hArg]SGGVV[hArg]KNFVPTDVGPFAF-NH2 (also: PEG-conjugated, in most cases at Lys25) [PEG-peptide of SEQ ID NO 888]
